Data set [1] concerns the molecule itself. The data set can be described thus: SEC; size exclusion chromatography of purified MupA (lower concentrations). (SEC sorts molecules by how far they enter the pores of the column.)
Data set [2] concerns the molecule itself. Nature of the data set: SEC; size exclusion chromatography of purified MupA at higher concentrations (>2 mg/ml).
Data set [3] concerns the molecule itself. The data set can be described thus: not stated; purification of recombinant Fre (Figure S6); how the dimer was shown is not told in the main text.

Usually stoichiometry N stands for the number of molecules, sites or subunits per partner or assembly.

B1: MupA (enzyme, Pseudomonas fluorescens, UniProt Q9AH80 1-369, looked up)
chain: MSVEQLLGLGVTNAARAPRQPAFSLLFFSDVREDISASEKYEFARSLTLFGDAQGFEAVYFPERHFHEFGAIYPDSAVMAASLIPQTRHIRFRTAGISLPLHHPARVVESWSMNDVLSGGRVDLGFGSGWSRPDFLLAPHAYEDRREVMWQRIEQVRRLWAGERLSFPGPGGDPVSVVTFPRPLQTSLNVWILVAQNTESFIAAGKAGFNVFTMLYGIDLPDLAEKIGLYRQARRDAGFDPASGRVTLMLHTLVGPDSAWVRRAVEAPFKDYIRSSLVAHMKARATPDGRPLDATEQENVLQYAFERYYETGALFGTVDEVRYRVGQVLETGVDEIACLMDFGVDYAVVHQSLPYLEQLVASFQERSAQ
notes: MupA, trans-acting flavin-dependent monooxygenase of the mupirocin biosynthetic gene cluster of Pseudomonas fluorescens; Dimeric by SEC; a dimer of dimers above 2 mg/ml; Used unlabelled in the NMR experiments; also called flavin-dependent monooxygenase (FMO); FMNH2-dependent oxygenase
On to B1, for which the entries for the “stoichiometry N” value in data set [1] and in data set [2] were 2 and 4, respectively.

B2: Fre (enzyme, E. coli, UniProt P0AEN1 1-233, looked up)
chain: MTTLSCKVTSVEAITDTVYRVRIVPDAAFSFRAGQYLMVVMDERDKRPFSMASTPDEKGFIELHIGASEINLYAKAVMDRILKDHQIVVDIPHGEAWLRDDEERPMILIAGGTGFSYARSILLTALARNPNRDITIYWGGREEQHLYDLCELEALSLKHPGLQVVPVVEQPEAGWRGRTGTVLTAVLQDHGTLAEHDIYIAGRFEMAKIARDLFCSERNAREDRLFGDAFAFI
notes: Fre, NAD(P)H:flavin oxidoreductase of E. coli, GenBank M61182; also called oxidoreductase Fre; E. coli Fre; source: E. coli, recombinant, overexpressed, purified
For the protein B2, in data set [3], the “stoichiometry N” value was 2.

Values taken from publication PMC10952193, “Structure and Function of the α‐Hydroxylation Bimodule of the Mupirocin Polyketide Synthase” (Angewandte Chemie (Weinheim an Der Bergstrasse, Germany), 2023).
